Data set [1] concerns the target T1, ZF5C (clone A25, C-terminal ZF5 fragment) (Homo sapiens, UniProt O43829 O43829:308-449).
T1 sequence: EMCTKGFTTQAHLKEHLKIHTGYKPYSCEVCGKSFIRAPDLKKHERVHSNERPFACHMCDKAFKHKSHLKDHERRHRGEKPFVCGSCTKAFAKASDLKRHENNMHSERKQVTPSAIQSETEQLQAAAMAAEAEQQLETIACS
Put plainly: EMSA; blocked by wild-type RRS competitor. As to conditions: tags: N-terminal 6xMyc; label: 32P. (In EMSA bound probe runs differently from free probe, usually more slowly.)

Data set [2] deals with T2, Rep78 (UniProt Q89268 Q89268:1-621).
T2 sequence: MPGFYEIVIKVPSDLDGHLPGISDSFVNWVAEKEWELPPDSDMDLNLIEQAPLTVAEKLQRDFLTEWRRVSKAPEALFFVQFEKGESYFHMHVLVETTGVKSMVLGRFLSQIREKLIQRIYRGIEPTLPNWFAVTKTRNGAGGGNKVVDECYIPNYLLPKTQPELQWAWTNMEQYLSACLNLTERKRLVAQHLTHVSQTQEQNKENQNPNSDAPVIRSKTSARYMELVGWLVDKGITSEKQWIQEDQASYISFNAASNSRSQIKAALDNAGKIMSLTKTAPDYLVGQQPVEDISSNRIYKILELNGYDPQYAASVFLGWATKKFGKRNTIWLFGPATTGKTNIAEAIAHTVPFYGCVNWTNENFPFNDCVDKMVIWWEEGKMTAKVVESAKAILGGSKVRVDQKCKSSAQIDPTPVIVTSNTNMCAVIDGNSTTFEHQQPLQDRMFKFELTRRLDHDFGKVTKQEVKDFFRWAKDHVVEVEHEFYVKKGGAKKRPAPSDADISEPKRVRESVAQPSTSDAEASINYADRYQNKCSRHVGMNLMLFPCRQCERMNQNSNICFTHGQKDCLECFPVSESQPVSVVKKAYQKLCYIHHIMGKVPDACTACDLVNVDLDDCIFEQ
Put plainly: EMSA; blocked by wild-type RRS competitor. As to conditions: label: 32P.

Data set [3] deals with T3, ZF5 zinc finger 4 mutant (Homo sapiens, UniProt O43829 O43829:1-449, C363S).
T3 sequence: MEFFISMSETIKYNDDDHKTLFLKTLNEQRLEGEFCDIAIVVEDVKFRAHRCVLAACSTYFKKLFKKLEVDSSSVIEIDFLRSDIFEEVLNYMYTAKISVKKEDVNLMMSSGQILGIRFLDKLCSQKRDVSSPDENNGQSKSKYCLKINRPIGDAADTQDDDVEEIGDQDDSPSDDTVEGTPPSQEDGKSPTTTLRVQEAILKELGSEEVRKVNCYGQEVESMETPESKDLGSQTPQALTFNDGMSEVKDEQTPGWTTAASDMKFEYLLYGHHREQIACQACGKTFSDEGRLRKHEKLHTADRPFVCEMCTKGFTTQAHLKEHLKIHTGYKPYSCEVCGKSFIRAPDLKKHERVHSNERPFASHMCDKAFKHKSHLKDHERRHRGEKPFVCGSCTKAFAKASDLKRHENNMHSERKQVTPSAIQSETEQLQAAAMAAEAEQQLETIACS
Put plainly: EMSA; no shift detected. As to conditions: tags: untagged and N-terminal 6xMyc versions; label: 32P.

Data set [4] deals with T4, ZF5 (Homo sapiens, UniProt O43829 O43829:1-449).
T4 sequence: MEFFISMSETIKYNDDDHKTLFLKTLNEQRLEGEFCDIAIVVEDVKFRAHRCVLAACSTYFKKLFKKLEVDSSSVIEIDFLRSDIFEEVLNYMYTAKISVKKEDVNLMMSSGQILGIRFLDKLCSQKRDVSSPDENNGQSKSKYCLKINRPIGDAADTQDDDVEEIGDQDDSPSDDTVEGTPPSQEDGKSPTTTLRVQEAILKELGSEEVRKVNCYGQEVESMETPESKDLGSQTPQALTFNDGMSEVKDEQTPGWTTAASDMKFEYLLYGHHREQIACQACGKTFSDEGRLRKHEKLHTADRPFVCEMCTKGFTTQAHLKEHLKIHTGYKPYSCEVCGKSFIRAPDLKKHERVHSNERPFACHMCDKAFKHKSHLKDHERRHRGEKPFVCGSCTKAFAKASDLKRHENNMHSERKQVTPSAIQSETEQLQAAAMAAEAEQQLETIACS
Briefly: EMSA; competed by excess unlabeled wild-type RRS. As to conditions: tags: untagged and N-terminal 6xMyc versions; label: 32P.

B1: RRS probe (core of 32-bp oligonucleotide) (dsDNA)
DNA 1: CTGCGCGCTCGCTCGCTCAC
DNA 2: GTGAGCGAGCGAGCGCGCAG
Regarding B1, the binding result in data set [1] is listed as “binds”; in data set [2] it was “binds”; in data set [3] it was “no binding”; in data set [4], “binds”.

The values are drawn from patent publication US20020182595, “Method of identifying cellular regulators of adeno-associated virus (AAV)” (published 2002).
